Test results reported in PMC10829871.
pKd: −log10 of the molar value.

Target: Recombinant human LILRB4 protein (ECD, hFc Tag) (human) (UniProt Q8NHJ6)
Assay: BLI

UniProt Q8NHJ6, sequence (Q8NHJ6 22-259): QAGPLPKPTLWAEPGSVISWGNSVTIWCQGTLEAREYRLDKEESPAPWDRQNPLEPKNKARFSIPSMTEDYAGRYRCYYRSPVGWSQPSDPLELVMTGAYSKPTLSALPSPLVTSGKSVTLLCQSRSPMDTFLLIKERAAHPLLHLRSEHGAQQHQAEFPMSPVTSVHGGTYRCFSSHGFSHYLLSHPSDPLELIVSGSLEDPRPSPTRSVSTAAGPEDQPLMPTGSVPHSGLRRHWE

## Recombinant human Galectin 8/LGALS8 protein (from UniProt O00214 1-317) (natural protein)
  pKd: 5.99
  koff: 0.131 s⁻¹
